The results in this text go back to paper PMC3088709, “Phosphorylation of the Yeast γ-Tubulin Tub4 Regulates Microtubule Function” (PLoS ONE, 2011).

B1: Tub4 (yeast gamma-tubulin), wild type, untagged [S. cerevisiae] / Spc110 [S. cerevisiae (endogenous in yeast cells)] (parent)
chain 1: MGGEIITLQAGQCGNHVGKFLWSQLAKEHAIGTDGLSQLPDSSTERDDDTKPFFRENSRNKFTPRAIMMDSEPSVIADVENTFRGFFDPRNTWVASDGASAGNSWANGYDIGTRNQDDILNKIDKEIDSTDNFEGFQLLHSVAGGTGSGLGSNLLEALCDRYPKKILTTYSVFPARSSEVVVQSYNTILALRRLIEDSDATVVFDNASLLNISGKVFRNPNIDLQHTNQLISTIISSVTNSIRFPSYMYSSMSSIYSTLIPSPELHFLSPSFTPFTSDYIHDDIAHKGHSSYDVMLDLLDPSNSLVSTAMNNPTYFNVYNTIIGNVEPRQISRAMTKLQQRIKFPSWSSSAMHVNIGRRSPYLPLQPNENEVSGMMLSNMSTVVNVFENACNTFDKVFAKGAFLNNYNVGDLFQSMQNVQDEFAESREVVQSLMEDYVAAEQDSYLDDVLVDDENMVGELEEDLDADGDHKLV
chain 2: MDEASHLPNGSLKNMEFTPVGFIKSKRNTTQTQVVSPTKVPNANNGDENEGPVKKRQRRSIDDTIDSTRLFSEASQFDDSFPEIKANIPPSPRSGNVDKSRKRNLIDDLKKDVPMSQPLKEQEVREHQMKKERFDRALESKLLGKRHITYANSDISNKELYINEIKSLKHEIKELRKEKNDTLNNYDTLEEETDDLKNRLQALEKELDAKNKIVNSRKVDDHSGCIEEREQMERKLAELERKLKTVKDQVLELENNSDVQSLKLRSKEDELKNLMNELNELKSNAEEKDTQLEFKKNELRKRTNELNELKIKSDEMDLQLKQKQNESKRLKDELNELETKFSENGSQSSAKENELKMLKNKIAELEEEISTKNSQLIAKEGKLASLMAQLTQLESKLNQRDSQLGSREEELKKTNDKLQKDIRIAREETVSKDERIIDLQKKVKQLENDLFVIKKTHSESKTITDNELESKDKLIKILENDLKVAQEKYSKMEKELKEREFNYKISESKLEDEKTTLNEKISNLAAENSQLKNKIEDNSTATHHMKENYEKQLESLRKDIEEYKESAKDSEDKIEELKIRIAENSAKVSEKRSKDIKQKDEQISDLTQNLKLQEDEISSLKSIIDRYKKDFNQLKSEQSNIQHDLNLQILNLENKLIESEDELKSLRDSQKIEIENWKRKYNNLSLENDRLLTEKESASDKEREISILNRKLDEMDKEKWNLQESKEKYKRELQKVITANDRLRREKEELNENSNNIRIMEDKMTRIKKNYLSEITSLQEENRRLEERLILNERRKDNDSTMQLNDIISYYKLKYHSEVRHNNDLKVINDYLNKVLALGTRRLRLDTRKGEHSLNISLPDDDELDRDYYNSHVYTRYHDYEYPLRFNLNRRGPYFERRLSFKTVALLVLACVRMKRIAFYRRSDDNRLRILRDRIESSSGRISW

In the first assay the parent is B1. Briefly: co-immunoprecipitation (anti-HA IP of Spc97-3HA), quantified immunoblot. Conditions: with Spc110 [S. cerevisiae (endogenous in yeast cells)]; Indirect: Spc110 recovered in Spc97-3HA IP from tub4-S74E cells; TUB4-AID SPC97-3HA cells, IAA for 2 h at 30°C; normalized to precipitated Spc97-3HA; parent: 1; read off a plot.
For chain 1 MGGEIITLQAGQCGNHVGKFLWSQLAKEHAIGTDGLSQLPDSSTERDDDTKPFFRENSRNKFTPRAIMMDSEPEVIADVENTFRGFFDPRNTWVASDGASAGNSWANGYDIGTRNQDDILNKIDKEIDSTDNFEGFQLLHSVAGGTGSGLGSNLLEALCDRYPKKILTTYSVFPARSSEVVVQSYNTILALRRLIEDSDATVVFDNASLLNISGKVFRNPNIDLQHTNQLISTIISSVTNSIRFPSYMYSSMSSIYSTLIPSPELHFLSPSFTPFTSDYIHDDIAHKGHSSYDVMLDLLDPSNSLVSTAMNNPTYFNVYNTIIGNVEPRQISRAMTKLQQRIKFPSWSSSAMHVNIGRRSPYLPLQPNENEVSGMMLSNMSTVVNVFENACNTFDKVFAKGAFLNNYNVGDLFQSMQNVQDEFAESREVVQSLMEDYVAAEQDSYLDDVLVDDENMVGELEEDLDADGDHKLV [chain 1 S74E], the ratio to parent is 1.3 RI.

Staying with this assay, now noted: with Spc110 [S. cerevisiae (endogenous in yeast cells)], Indirect: Spc110 recovered in Spc97-3HA IP from tub4-S360D cells, TUB4-AID SPC97-3HA cells, IAA for 2 h at 30°C, normalized to precipitated Spc97-3HA, read off a plot.
For chain 1 MGGEIITLQAGQCGNHVGKFLWSQLAKEHAIGTDGLSQLPDSSTERDDDTKPFFRENSRNKFTPRAIMMDSEPSVIADVENTFRGFFDPRNTWVASDGASAGNSWANGYDIGTRNQDDILNKIDKEIDSTDNFEGFQLLHSVAGGTGSGLGSNLLEALCDRYPKKILTTYSVFPARSSEVVVQSYNTILALRRLIEDSDATVVFDNASLLNISGKVFRNPNIDLQHTNQLISTIISSVTNSIRFPSYMYSSMSSIYSTLIPSPELHFLSPSFTPFTSDYIHDDIAHKGHSSYDVMLDLLDPSNSLVSTAMNNPTYFNVYNTIIGNVEPRQISRAMTKLQQRIKFPSWSSSAMHVNIGRRDPYLPLQPNENEVSGMMLSNMSTVVNVFENACNTFDKVFAKGAFLNNYNVGDLFQSMQNVQDEFAESREVVQSLMEDYVAAEQDSYLDDVLVDDENMVGELEEDLDADGDHKLV [chain 1 S360D], the ratio to parent amounted to 0.28 RI.

The same assay, now with this note: with Spc110 [S. cerevisiae (endogenous in yeast cells)], Indirect: Spc110 recovered in Spc97-3HA IP from tub4-S100E cells, TUB4-AID SPC97-3HA cells, IAA for 2 h at 30°C, normalized to precipitated Spc97-3HA, read off a plot.
Regarding chain 1 MGGEIITLQAGQCGNHVGKFLWSQLAKEHAIGTDGLSQLPDSSTERDDDTKPFFRENSRNKFTPRAIMMDSEPSVIADVENTFRGFFDPRNTWVASDGAEAGNSWANGYDIGTRNQDDILNKIDKEIDSTDNFEGFQLLHSVAGGTGSGLGSNLLEALCDRYPKKILTTYSVFPARSSEVVVQSYNTILALRRLIEDSDATVVFDNASLLNISGKVFRNPNIDLQHTNQLISTIISSVTNSIRFPSYMYSSMSSIYSTLIPSPELHFLSPSFTPFTSDYIHDDIAHKGHSSYDVMLDLLDPSNSLVSTAMNNPTYFNVYNTIIGNVEPRQISRAMTKLQQRIKFPSWSSSAMHVNIGRRSPYLPLQPNENEVSGMMLSNMSTVVNVFENACNTFDKVFAKGAFLNNYNVGDLFQSMQNVQDEFAESREVVQSLMEDYVAAEQDSYLDDVLVDDENMVGELEEDLDADGDHKLV [chain 1 S100E], the ratio to parent was 0.76 RI.
